Experimental data: paper PMC11257959, “Structural basis of the histone ubiquitination read–write mechanism of RYBP–PRC1” (Nature Structural & Molecular Biology, 2024)

T1: human RING1B, full length (human, UniProt Q99496 1-336)
T1 construct: In the cryo-EM sample a subunit of vPRC1; residues 15-115 were built; source: High Five insect cells (baculovirus), coexpressed with BMI1, purified; not shown: twin strep-tag, N-terminal, cleaved
T1 sequence (looked up): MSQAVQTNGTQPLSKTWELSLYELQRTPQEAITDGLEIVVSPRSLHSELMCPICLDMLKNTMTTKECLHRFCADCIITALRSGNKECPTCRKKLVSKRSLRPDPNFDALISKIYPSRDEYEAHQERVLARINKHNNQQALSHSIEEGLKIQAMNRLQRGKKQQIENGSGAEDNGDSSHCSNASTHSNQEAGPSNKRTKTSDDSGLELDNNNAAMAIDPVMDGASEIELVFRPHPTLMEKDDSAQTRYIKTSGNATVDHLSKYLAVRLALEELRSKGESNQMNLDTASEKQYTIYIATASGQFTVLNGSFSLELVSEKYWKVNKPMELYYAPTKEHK

T2: RING1B:BMI1 full-length heterodimer (human, UniProt Q99496 1-336; P35226 1-326)
T2 construct: also called RING1B:BMI1 dimer; source: High Five insect cells (baculovirus, coexpressed from one vector), purified (Ni-NTA, twin strep-tag cleavage, SEC); not shown: twin strep-tag, N-terminal, cleaved; His6, C-terminal, kept
T2 sequence (looked up) 1: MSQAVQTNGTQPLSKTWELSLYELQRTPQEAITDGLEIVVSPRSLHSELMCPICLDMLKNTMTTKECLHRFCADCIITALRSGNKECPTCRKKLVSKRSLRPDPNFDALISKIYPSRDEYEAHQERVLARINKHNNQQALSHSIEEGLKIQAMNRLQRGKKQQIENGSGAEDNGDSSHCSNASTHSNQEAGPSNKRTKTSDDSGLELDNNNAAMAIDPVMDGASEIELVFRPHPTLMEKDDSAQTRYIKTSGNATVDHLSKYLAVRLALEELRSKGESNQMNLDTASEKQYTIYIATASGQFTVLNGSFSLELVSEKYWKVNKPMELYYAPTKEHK
T2 sequence (looked up) 2: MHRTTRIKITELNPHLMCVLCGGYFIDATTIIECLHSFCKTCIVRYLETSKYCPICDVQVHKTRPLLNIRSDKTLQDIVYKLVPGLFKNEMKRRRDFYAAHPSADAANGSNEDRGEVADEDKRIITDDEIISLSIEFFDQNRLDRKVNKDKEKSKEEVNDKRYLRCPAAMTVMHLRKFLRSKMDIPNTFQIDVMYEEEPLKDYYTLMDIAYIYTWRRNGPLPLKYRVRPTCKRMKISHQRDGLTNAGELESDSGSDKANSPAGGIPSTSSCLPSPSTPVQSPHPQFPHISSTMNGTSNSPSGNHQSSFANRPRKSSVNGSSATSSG


Tests used:
[1] = molecular target: T3, Drosophila melanogaster histone H4 (D. melanogaster, UniProt P84040 1-103); test: cryo-EM structure; vPRC1:Nuc; Nuc/vPRC1 ratio of 1:10 in UB buffer, 1 h at 4 °C; biotinylated nucleosomes bound to streptavidin-coated grids; conditions: both partners purified
T3 construct: histone H4, D. melanogaster; Stood within the nucleosome; source: bought: The Histone Source (Colorado State University); in the reconstituted nucleosome

[2] = molecular target: T1, human RING1B, full length; test: SEC; RING1B and BMI1 coexpressed in insect cells from one vector, Ni-NTA (His tag on BMI1), tag cleavage, SEC (S200); conditions: partners not purified
human ubiquitin = molecular target: T4, human ubiquitin (human, UniProt P0CG47 1-76, conjugated to H2A); test: cryo-EM structure; vPRC1:Nuc_(H2Aub1); Nuc_(H2Aub1)/vPRC1 ratio of 1:5 in UB buffer, 1 h at 4 °C; biotinylated nucleosomes bound to streptavidin-coated grids, two additional washes; conditions: both partners purified
T4 construct: human ubiquitin, the cut product of the precursor; Stood as the ubiquitin moiety of H2Aub1 in the nucleosome; source: bought: Boston Biochem; conjugated to H2A of the nucleosome in vitro

[3] = molecular target: T2, RING1B:BMI1 full-length heterodimer; test: SEC; purified RYBP mixed with purified RING1B:BMI1 at a 1:1 molar ratio, cation exchange, then SEC in 25 mM Tris-HCl pH 7, 150 mM NaCl, 10% glycerol, 2 mM DTT; conditions: both partners purified

Row | Binder | binding result [1] | binding result [2] | binding result (human ubiquitin) | binding result [3]
1 | human BMI1, full length (natural protein, UniProt P35226 1-326, looked up, In the cryo-EM sample a subunit of vPRC1; residues 3-107 were built; also called BIM1; source: High Five insect cells (baculovirus), coexpressed with RING1B, purified; not shown: His6, C-terminal, kept) MHRTTRIKITELNPHLMCVLCGGYFIDATTIIECLHSFCKTCIVRYLETSKYCPICDVQVHKTRPLLNIRSDKTLQDIVYKLVPGLFKNEMKRRRDFYAAHPSADAANGSNEDRGEVADEDKRIITDDEIISLSIEFFDQNRLDRKVNKDKEKSKEEVNDKRYLRCPAAMTVMHLRKFLRSKMDIPNTFQIDVMYEEEPLKDYYTLMDIAYIYTWRRNGPLPLKYRVRPTCKRMKISHQRDGLTNAGELESDSGSDKANSPAGGIPSTSSCLPSPSTPVQSPHPQFPHISSTMNGTSNSPSGNHQSSFANRPRKSSVNGSSATSSG | binds | binds |  | 
2 | human RYBP, full length (natural protein, UniProt Q8N488 1-228, looked up, In the cryo-EM sample it stood as a subunit of vPRC1; residues 23-58 were built; source: High Five insect cells (baculovirus), purified (Ni-NTA, His tag cleavage, reverse Ni-NTA); not shown: His6, N-terminal, cleaved) MTMGDKKSPTRPKRQAKPAADEGFWDCSVCTFRNSAEAFKCSICDVRKGTSTRKPRINSQLVAQQVAQQYATPPPPKKEKKEKVEKQDKEKPEKDKEISPSVTKKNTNKKTKPKSDILKDPPSEANSIQSANATTKTSETNHTSRPRLKNVDRSTAQQLAVTVGNVTVIITDFKEKTRSSSTSSSTVTSSAGSEQQNQSSSGSESTDKGSSRSSTPKGDMSAVNDESF |  |  | binds | binds
3 | RYBP_(R47A/R53A/R56A) (natural protein, human, UniProt Q8N488 1-228, looked up, source: High Five insect cells (baculovirus), purified following the same procedure as the wild-type protein; not shown: His6, N-terminal, cleaved) MTMGDKKSPTRPKRQAKPAADEGFWDCSVCTFRNSAEAFKCSICDVAKGTSTAKPAINSQLVAQQVAQQYATPPPPKKEKKEKVEKQDKEKPEKDKEISPSVTKKNTNKKTKPKSDILKDPPSEANSIQSANATTKTSETNHTSRPRLKNVDRSTAQQLAVTVGNVTVIITDFKEKTRSSSTSSSTVTSSAGSEQQNQSSSGSESTDKGSSRSSTPKGDMSAVNDESF |  |  |  | binds
4 | RYBP_(T31A/F32A) (natural protein, human, UniProt Q8N488 1-228, looked up, source: High Five insect cells (baculovirus), purified following the same procedure as the wild-type protein; not shown: His6, N-terminal, cleaved) MTMGDKKSPTRPKRQAKPAADEGFWDCSVCAARNSAEAFKCSICDVRKGTSTRKPRINSQLVAQQVAQQYATPPPPKKEKKEKVEKQDKEKPEKDKEISPSVTKKNTNKKTKPKSDILKDPPSEANSIQSANATTKTSETNHTSRPRLKNVDRSTAQQLAVTVGNVTVIITDFKEKTRSSSTSSSTVTSSAGSEQQNQSSSGSESTDKGSSRSSTPKGDMSAVNDESF |  |  |  | binds
